# B1: Bovine S100B (Ca^2+-S100B in the SBiX crystal structures) (natural protein)
# chain: MSELEKAVVALIDVFHQYSGREGDKHKLKKSELKELINNELSHFLEEIKEQEVVDKVMETLDSDGDGECDFQEFMAFVAMITTACHEFFEHE
# Biological target: the molecule itself
# Test: crystal structure
protein,measurement,value
B1,binding result,binds

# — PMC2804263 (Biochemistry, 2009)
